# Measured values: publication PMC12637224, “The nonconserved integrin cytoplasmic region determines integrin subtype–specific characteristics by modulating talin1 binding kinetics” (The Journal of Biological Chemistry, 2025)
# Experiments:
# [1] = target: T1, HaloTag-fused talin1 (HT-talin1), endogenous knock-in in mouse primary T cells (mouse (endogenous knock-in in mouse T …, UniProt P26039 1-2541, HaloTag labelled with HT SaraFluor 650T Ligand)); assay: Th2 cells, on PECAM1
# [2] = target: T1, HaloTag-fused talin1 (HT-talin1), …; assay: naive T cells, on PECAM1
# [3] = target: T1, HaloTag-fused talin1 (HT-talin1), …; assay: Th2 cells, on ICAM1
# [4] = target: T1, HaloTag-fused talin1 (HT-talin1), …; assay: naive T cells, on ICAM1
# [5] = target: T1, HaloTag-fused talin1 (HT-talin1), …; assay: naive T cells, on ICAM1; remark: listed apart in the source
# [6] = target: T1, HaloTag-fused talin1 (HT-talin1), …; assay: activated T cells, on ICAM1
koff [1] [s⁻¹],koff [2] [s⁻¹],koff [3] [s⁻¹],koff [4] [s⁻¹],koff [5] [s⁻¹],koff [6] [s⁻¹],Binder
0.264,0.326,,,,,"αV/β3 integrin, endogenous on mouse primary T cells (receptor) chain 1: FNLDVESPAEYAGPEGSYFGFAVDFFEPSTSSRMFLLVGAPKANTTQPGIVEGGQVLKCECSSSRRCQPIEFDSTGNRDYAKDDPLEFKSHQWFGASVRSKQDKILACAPLYHWRTEMKQEREPVGTCFLQDGTKTVEYAPCRSKNIDADGQGFCQGGFSIDFTKADRVLLGGPGSFYWQGQLISDQVAEIISKYDPNVYSIKYNNQLATRTAQAIFDDSYLGYSVAVGDFNGDGIEDFVSGVPRAARTLGMVYIYDGKNMSSLHNFTGEQMAAYFGFSVAATDINGDDYADVFIGAPLFMDRGSDGKLQEVGQVSVSLQRAVGDFQTTKLNGFEVFARFGSAIAPLGDLDQDGFNDIAIAAPYGGEDKKGLVYIFNGRSTGLNSVPSQILEGQWAAQSMPPSFGYSMKGATDVDRNGYPDLVVGAFGVDRAVLYRARPVVTVNAGLEVYPSILNQDNKICPLPGTALKVSCFNVRFCLKADGKGTLPRKLHFQVELLLDKLKQKGAIRRALFLHNRSPVHSKTMTVFRGGQMQCEELVAYLRDESEFRDKLTPITIFMEYRLDQRTAADATGLQPILNQFTPANVSRQAHILLDCGEDNVCKPKLEVSVNSDQKKIYIGDDNPLTLTVKAQNQGEGAYEAELIVSIPPQADFIGVVRNNEALARLSCAFKTENQTRQVVCDLGNPMKAGTQLLAGLRFSVHQQSEMDTSVKFDLKIQSSNSFDNVSPVVSYKVDLAVLAAVEIRGVSSPDHIFLPIPNWEYKENPETEEDVGPIVQHIYELRNNGPSSFSKAILNLQWPYKYNNNTLLYILHYDIDGPMNCTADTEINPLRIKTPEKNDTAAAGQGERNHLITKRDLTLREGDVHTLGCGIAKCLQITCQVGRLDRGKSAILYVKSLLWTETFMNKENQNHSYSLKSSASFNIIEFPYKNLPIEDLFNSTLVTTNITWGIQPAPMPVPVWVIILAVLAGLLLLAVLVFVMYRMGFFKRVRPPQEEQEREQLQPHENGEGNSET chain 2: ESNICTTRGVNSCQQCLAVSPVCAWCSDETLSQGSPRCNLKENLLKDNCAPESIEFPVSEAQILEARPLSSKGSGSSAQITQVSPQRIALRLRPDDSKIFSLQVRQVEDYPVDIYYLMDLSFSMKDDLSSIQTLGTKLASQMRKLTSNLRIGFGAFVDKPVSPYMYISPPQAIKNPCYNMKNACLPMFGYKHVLTLTDQVSRFNEEVKKQSVSRNRDAPEGGFDAIMQATVCDEKIGWRNDASHLLVFTTDAKTHIALDGRLAGIVLPNDGHCHIGTDNHYSASTTMDYPSLGLMTEKLSQKNINLIFAVTENVVSLYQNYSELIPGTTVGVLSDDSSNVLQLIVDAYGKIRSKVELEVRDLPEELSLSFNATCLNNEVIPGLKSCVGLKIGDTVSFSIEAKVRGCPQEKEQSFTIKPVGFKDSLTVQVTFDCDCACQAFAQPSSPRCNNGNGTFECGVCRCDQGWLGSMCECSEEDYRPSQQEECSPKEGQPICSQRGECLCGQCVCHSSDFGKITGKYCECDDFSCVRYKGEMCSGHGQCNCGDCVCDSDWTGYYCNCTTRTDTCMSTNGLLCSGRGNCECGSCVCVQPGSYGDTCEKCPTCPDACSFKKECVECKKFNRGTLHEENTCSRYCRDDIEQVKELTDTGKNAVNCTYKNEDDCVVRFQYYEDTSGRAVLYVVEEPECPKGPDILVVLLSVMGAILLIGLATLLIWKLLITIHDRKEFAKFEEERARAKWDTANNPLYKEATSTFTNITYRGT"
,,0.17,0.288,0.316,0.279,"LFA1 (αL/β2 integrin), endogenous on mouse primary T cells (receptor) chain 1: YNLDTRPTQSFLAQAGRHFGYQVLQIEDGVVVGAPGEGDNTGGLYHCRTSSEFCQPVSLHGSNHTSKYLGMTLATDAAKGSLLACDPGLSRTCDQNTYLSGLCYLFPQSLEGPMLQNRPAYQECMKGKVDLVFLFDGSQSLDRKDFEKILEFMKDVMRKLSNTSYQFAAVQFSTDCRTEFTFLDYVKQNKNPDVLLGSVQPMFLLTNTFRAINYVVAHVFKEESGARPDATKVLVIITDGEASDKGNISAAHDITRYIIGIGKHFVSVQKQKTLHIFASEPVEEFVKILDTFEKLKDLFTDLQRRIYAIEGTNRQDLTSFNMELSSSGISADLSKGHAVVGAVGAKDWAGGFLDLREDLQGATFVGQEPLTSDVRGGYLGYTVAWMTSRSSRPLLAAGAPRYQHVGQVLLFQAPEAGGRWNQTQKIEGTQIGSYFGGELCSVDLDQDGEAELLLIGAPLFFGEQRGGRVFTYQRRQSLFEMVSELQGDPGYPLGRFGAAITALTDINGDRLTDVAVGAPLEEQGAVYIFNGKPGGLSPQPSQRIQGAQVFPGIRWFGRSIHGVKDLGGDRLADVVVGAEGRVVVLSSRPVVDVVTELSFSPEEIPVHEVECSYSAREEQKHGVKLKACFRIKPLTPQFQGRLLANLSYTLQLDGHRMRSRGLFPDGSHELSGNTSITPDKSCLDFHFHFPICIQDLISPINVSLNFSLLEEEGTPRDQKVGRAMQPILRPSIHTVTKEIPFEKNCGEDKKCEANLTLSSPARSGPLRLMSSASLAVEWTLSNSGEDAYWVRLDLDFPRGLSFRKVEMLQPHSRMPVSCEELTEGSSLLTKTLKCNVSSPIFKAGQEVSLQVMFNTLLNSSWEDFVELNGTVHCENENSSLQEDNSAATHIPVLYPVNILTKEQENSTLYISFTPKGPKTQQVQHVYQVRIQPSAYDHNMPTLEALVGVPWPHSEDPITYTWSVQTDPLVTCHSEDLKRPSSEAEQPCLPGVQFRCPIVFRREILIQVTGTVELSKEIKASSTLSLCSSLSVSFNSSKHFHLYGSKASEAQVLVKVDLIHEKEMLHVYVLSGIGGLVLLFLIFLALYKVGFFKRNLKEKMEADGGVPNGSPPEDTDPLAVPGEETKDMGCLEPLRESDKD chain 2: QECTKYKVSSCRDCIQSGPGCSWCQKLNFTGPGEPDSLRCDTRAQLLLKGCPADDIMDPRSIANPEFDQRGQRKQLSPQKVTLYLRPGQAAAFNVTFRRAKGYPIDLYYLMDLSYSMLDDLNNVKKLGGDLLQALNEITESGRIGFGSFVDKTVLPFVNTHPEKLRNPCPNKEKACQPPFAFRHVLKLTDNSNQFQTEVGKQLISGNLDAPEGGLDAIMQVAACPEEIGWRNVTRLLVFATDDGFHFAGDGKLGAILTPNDGRCHLEDNMYKRSNEFDYPSVGQLAHKLSESNIQPIFAVTKKMVKTYEKLTEIIPKSAVGELSDDSSNVVQLIKNAYYKLSSRVFLDHSTLPDTLKVTYDSFCSNGASSIGKSRGDCDGVQINNPVTFQVKVMASECIQEQSFVIRALGFTDTVTVQVRPQCECQCRDQSREQSLCGGKGVMECGICRCESGYIGKNCECQTQGRSSQELERNCRKDNSSIVCSGLGDCICGQCVCHTSDVPNKEIFGQYCECDNVNCERYNSQVCGGSDRGSCNCGKCSCKPGYEGSACQCQRSTTGCLNARLVECSGRGHCQCNRCICDEGYQPPMCEDCPSCGSHCRDNHTSCAECLKFDKGPFEKNCSVQCAGMTLQTIPLKKKPCKERDSEGCWITYTLQQKDGRNIYNIHVEDSLECVKGPNVAAIVGGTVVGVVLIGVLLLVIWKALTHLTDLREYRRFEKEKLKSQWNNDNPLFKSATTTVMNPKFAES"
